According to US20230265198A1 (TWIST BIOSCIENCE, published 2023):

Target: T1, neuropilin-1 (NRP1) on HEK293 cells overexpressing NRP1 (UniProt O14786 22-923, limits assumed)
T1 construct: whole, on cells
Experiment: flow cytometry, HEK293-NRP1 vs HEK293

| Binder | 100 nM FACS (MFI Ratio) |
| --- | --- |
| NRP1-17 (VHH) VHH: EVQLVESGGGLVQPGGSLRLSCAASGRFSRINSMGWFRQAPGKERELVAAIMWSGGSTKYADSVKGRFTISADNSKNTAYLQMNSLKPEDTAVYYCAAGSPSRLVNMWQYNWGQGTLVTVSS | 1960 |
| NRP1-91 (VHH) VHH: EVQLVESGGGLVQPGGSLRLSCAASGNIFINNAMGWFRQAPGKERELVAAITSSSGRRWYADSVKGRFTISADNSKNTAYLQMNSLKPEDTAVYYCAAGSPSRLVNMWQYNWGQGTLVTVSS | 2.7 |
| NRP1-41 (VHH) VHH: EVQLVESGGGLVQPGGSLRLSCAASGRFSRINSMGWFRQAPGKERESVAAISWNGGSIYYADSVKGRFTISADNSKNTAYLQMNSLKPEDTAVYYCAAGSPSRLVNMWQYNWGQGTLVTVSS | 6.1 |
| NRP1-93 (VHH) VHH: EVQLVESGGGLVQPGGSLRLSCAASGIPFRSRTMGWFRQAPGKEREFVATINTGGGTYADSVKGRFTISADNSKNTAYLQMNSLKPEDTAVYYCARHGDTYYYGSGTVRSLDYWGQGTLVTVSS | 1.4 |
| NRP1-94 (VHH) VHH: EVQLVESGGGLVQPGGSLRLSCAASGRTFSTYASMGWFRQAPGKEREFVARIWPGGSTYYADSVKGRFTISADNSKNTAYLQMNSLKPEDTAVYYCARQFGAWLGEVVGPMDVWGQGTLVTVSS | 2.8 |
| NRP1-88 (VHH) VHH: EVQLVESGGGLVQPGGSLRLSCAASGGIFSRYDMGWFRQAPGKEREFVATITSTGDTYADSVKGRFTISADNSKNTAYLQMNSLKPEDTAVYYCARLGGNSEYYYYYGMDVWGQGTLVTVSS | 2.8 |
| NRP1-10 (VHH) VHH: EVQLVESGGGLVQPGGSLRLSCAASGFTFSMWPMGWFRQAPGKEREFVARITGGGSTIWSRGDTYYADSVKGRFTISADNSKNTAYLQMNSLKPEDTAVYYCARADYYDSSAFDYWGQGTLVTVSS | 19.6 |
| NRP1-89 (VHH) VHH: EVQLVESGGGLVQPGGSLRLSCAASGINFSRYGMGWFRQAPGKEREWVSAISSGGGSITTYADSVKGRFTISADNSKNTAYLQMNSLKPEDTAVYYCARHNSGWHFDYWGQGTLVTVSS | 1.8 |
| NRP1-92 (VHH) VHH: EVQLVESGGGLVQPGGSLRLSCAASGLLFSSYDMGWFRQAPGKEREFVAAITSGGRKNYADSVKGRFTISADNSKNTAYLQMNSLKPEDTAVYYCARYDYSGGLTFDYWGQGTLVTVSS | 6 |
| NRP1-50 (VHH) VHH: EVQLVESGGGLVQPGGSLRLSCAASGRTFNRYPMGWFRQAPGKEREWVAAISTSGGSTYYADSVKGRFTISADNSKNTAYLQMNSLKPEDTAVYYCAIHTSREIWGQGTLVTVSS | 5.9 |
| NRP1-45 (VHH) VHH: EVQLVESGGGLVQPGGSLRLSCAASGRTFNRYPMGWFRQAPGKEREWVAAAHWSGGRMWYADSVKGRFTISADNSKNTAYLQMNSLKPEDTAVYYCAIHTSREIWGQGTLVTVSS | 6.6 |
| NRP1-95 (VHH) VHH: EVQLVESGGGLVQPGGSLRLSCAASGRTFNRYPMGWFRQAPGKEREWISALAPGGGNRYYADSVKGRFTISADNSKNTAYLQMNSLKPEDTAVYYCAIHTSREIWGQGTLVTVSS | 1.5 |
| NRP1-97 (VHH) VHH: EVQLVESGGGLVQPGGSLRLSCAASGFDFDNFDDYAMGWFRQAPGKEREFVAEIGWRDTTLYADSVKGRFTISADNSKNTAYLQMNSLKPEDTAVYYCARGRYDLSDFDYWGQGTLVTVSS | 1.7 |
| NRP1-98 (VHH) VHH: EVQLVESGGGLVQPGGSLRLSCAASGLNLSRLDMGWFRQAPGKEREFVAAISWSGDSTNYADSVKGRFTISADNSKNTAYLQMNSLKPEDTAVYYCARIHKAPYYGMDVWGQGTLVTVSS | 1.2 |
| NRP1-101 (VHH) VHH: EVQLVESGGGLVQPGGSLRLSCAASGRNRYGMGWFRQAPGKEREFVAAISRSGGSTNYADSVKGRFTISADNSKNTAYLQMNSLKPEDTAVYYCAKGGAQNYTWGQGTLVTVSS | 2.4 |
| NRP1-90 (VHH) VHH: EVQLVESGGGLVQPGGSLRLSCAASGGIFSINDMGWFRQAPGKEREFVARITSGGSTNYADSVKGRFTISADNSKNTAYLQMNSLKPEDTAVYYCAKADYYDSSDFDSWGQGTLVTVSS | 1 |
| NRP1-87 (VHH) VHH: EVQLVESGGGLVQPGGSLRLSCAASGRIFTMGWFRQAPGKEREFVASITTDGNTLYADSVKGRFTISADNSKNTAYLQMNSLKPEDTAVYYCARWVGASAYHYGMDVWGQGTLVTVSS | 3.7 |

More lines, now with the values ahead:

| 100 nM FACS (MFI Ratio) | Binder |
| --- | --- |
| 0.7 | NRP1-111 (VHH) VHH: EVQLVESGGGLVQPGGSLRLSCAASGIAFRIRTMGWFRQAPGKERELVAAITSSSGRRWYADSVKGRFTISADNSKNTAYLQMNSLKPEDTAVYYCAARRIVNVEGAYRDWGQGTLVTVSS |
| 3.3 | NRP1-110 (VHH) VHH: EVQLVESGGGLVQPGGSLRLSCAASGRTFSNYSMGWFRQAPGKEREFVASIWWTFDAPYYADSVKGRFTISADNSKNTAYLQMNSLKPEDTAVYYCAKWDGLGTLWGQGTLVTVSS |
| 2.5 | NRP1-102 (VHH) VHH: EVQLVESGGGLVQPGGSLRLSCAASGGTIRTMGWFRQAPGKEREFVATISWSGALTHYADSVKGRFTISADNSKNTAYLQMNSLKPEDTAVYYCAHRDNFWSAYYDFWGQGTLVTVSS |
| 5.2 | NRP1-120 (antibody, IgG2, V domains shown) VH: EVQLLESGGGLVQPGGSLRLSCAASGFTFKSYGMHWVRQAPGKGLEWVSEISPSGKKKYYADSVKGRFTISRDNSKNTLYLQMNSLRAEDTAVYYCAAPNDQSAAFDYWGQGTLVTVSS VL: DIQMTQSPSSLSASVGDRVTITCKASDHIGKFLTWYQQKPGKAPKLLIYPKHNRPPGVPSRFSGSGSGTDFTLTISSLQPEDFATYYCQQSYDNPLTFGQGTKVEIK |
| 0.4 | NRP1-113 (VHH) VHH: EVQLVESGGGLVQPGGSLRLSCAASGHTFRGDVMGWFRQAPGKEREFVASISGSGTRTLYADSVKGRFTISADNSKNTAYLQMNSLKPEDTAVYYCARDVEGGWYGLSYGMDVWGQGTLVTVSS |
| 6.2 | NRP1-104 (VHH) VHH: EVQLVESGGGLVQPGGSLRLSCAASGFSFDDYVMGWFRQAPGKEREFVARISTSGSWTGYADSVKGRFTISADNSKNTAYLQMNSLKPEDTAVYYCAINYSPGYPDHWGQGTLVTVSS |
| 2.8 | NRP1-107 (VHH) VHH: EVQLVESGGGLVQPGGSLRLSCAASGRTFSNSGMGWFRQAPGKEREFVAAISWNGGTTNYADSVKGRFTISADNSKNTAYLQMNSLKPEDTAVYYCATLGGTVSGSHWSYFYYMDVWGQGTLVTVSS |
| 128 | NRP1-136 (antibody, IgG2, V domains shown) VH: EVQLLESGGGLVQPGGSLRLSCAASGFTFKDYGMNWVRQAPGKGLEWVSVISGSGGRPNYADSVKGRFTISRDNSKNTLYLQMNSLRAEDTAVYYCARVWRNHLDYWGQGTLVTVSS VL: DIQMTQSPSSLSASVGDRVTITCSGDRLGEKYVSWYQQKPGKAPKLLIYGKKNRPSGVPSRFSGSGSGTDFTLTISSLQPEDFATYYCQAWASSTVVFGQGTKVEIK |
| 6.2 | NRP1-103 (VHH) VHH: EVQLVESGGGLVQPGGSLRLSCAASGRTLSRYTMGWFRQAPGKERELVATITSGGSTGYADSVKGRFTISADNSKNTAYLQMNSLKPEDTAVYYCAKDKWGVRGEFDSWGQGTLVTVSS |
| 2.1 | NRP1-109 (VHH) VHH: EVQLVESGGGLVQPGGSLRLSCAASGRTSRSYDMGWFRQAPGKEREFVASIDQSGESTAYADSVKGRFTISADNSKNTAYLQMNSLKPEDTAVYYCARADYYGSGSYFDYWGQGTLVTVSS |
| 0.9 | NRP1-108 (VHH) VHH: EVQLVESGGGLVQPGGSLRLSCAASGNIPPINAMGWFRQAPGKEREWVATITSGGSTTYADSVKGRFTISADNSKNTAYLQMNSLKPEDTAVYYCARDRYFYDTSGNQRSSWFDPWGQGTLVTVSS |
| 0.7 | NRP1-112 (VHH) VHH: EVQLVESGGGLVQPGGSLRLSCAASGNIFINNAMGWFRQAPGKERELVAAITSSSGRRWYADSVKGRFTISADNSKNTAYLQMNSLKPEDTAVYYCAAYQRGWGDWGQGTLVTVSS |
| 2.1 | NRP1-127 (antibody, IgG2, V domains shown) VH: EVQLLESGGGLVQPGGSLRLSCAASGFTFSNYGVSWVRQAPGKGLEWVSYISSSGSSTYYADSVKGRFTISRDNSKNTLYLQMNSLRAEDTAVYYCAKGARRFDYWGQGTLVTVSS VL: DIQMTQSPSSLSASVGDRVTITCRASHNINSYLNWYQQKPGKAPKLLIYGKKNRPSGVPSRFSGSGSGTDFTLTISSLQPEDFATYYCGQSYRYPLTFGQGTKVEIK |
| 1200 | NRP1-124 (antibody, IgG2, V domains shown) VH: EVQLLESGGGLVQPGGSLRLSCAASGFDFSDYEMSWVRQAPGKGLEWVSRISVAGRRTAYADSVKGRFTISRDNSKNTLYLQMNSLRAEDTAVYYCAKGRRKLRATRFDYWGQGTLVTVSS VL: DIQMTQSPSSLSASVGDRVTITCSGDKLRNKYASWYQQKPGKAPKLLIYETSKLASGVPSRFSGSGSGTDFTLTISSLQPEDFATYYCQQSFSVPAFGQGTKVEIK |
